Experimental findings from patent US9289478B2, “Formulations of tumour-associated peptides binding to human leukocyte antigen (HLA) class I or class II molecules for vaccine” (IMMATICS BIOTECHNOLOGIES GMBH, priority 2008, dated 2016) are described below.

Common to all, as to assay type: physicochemical
Data set [1] can be described thus: HPLC-assay for stability of peptides in lyophilised formulation on storage for 3 months (Example 4). Conditions: for stability of peptides in formulation, 1 M: 1 month; for stability of peptides in formulation, 2 M: 2 months; for stability of peptides in formulation, 3 M: 3 months. As for the experimental part:
(§1) Identity, purity and peptide content are determined by analytical RP-HPLC chromatography. Detection wavelength was 220 nm.

Data set [2] can be described thus: HPLC-assay for in-use stability after reconstitution with 4.2% sodium hydrogen carbonate solution (Example 3, peptides SEQ ID NO 11-23). On the procedure: For clinical trials the above described formulation is dissolved in 700 μl sodium hydrogen carbonate (4.2%). To dissolve the lyophilisate, the vial and the diluent shall be shaken vigorously for 1 minute, check whether solution is clear, otherwise continue shaking for another minute until the solution is clear. Administration of 500 μL of the solution has to occur within 1 h after reconstitution. Dissolved lyophilisate may be stored aseptically at room temperature for up to 1 hour following reconstitution.
as §1

Data set [3] is described as follows: HPLC-assay for in-use stability after reconstitution with 4.2% sodium hydrogen carbonate solution (Example 2, peptides SEQ ID NO 1-10). As for the experimental part: Resolubilization procedure: For clinical trials the above described formulation is dissolved in 700 μl sodium hydrogen carbonate (4.2%). Remove plastic cap from one vial. Unpack and remove sodium hydrogen carbonate (4.2%) from the refrigerator at least 30 min before resolubilization to bring them up to room temperature before injection. Prepare syringe and needle for reconstitution. Use aseptic technique to take 700 μL of diluent for reconstitution of the lyophilisate. To dissolve the lyophilisate, the vial and the diluent shall be shaken vigorously for 1 minute, check whether solution is clear, otherwise continue shaking for another minute until the solution is clear. 10 to 30 minutes after GM-CSF injection, use a new syringe to administer 500 μL reconstituted formulation i.d. at the same site. Administration has to occur within 1 h after reconstitution. Dissolved lyophilisate may be stored aseptically at room temperature for up to 1 hour following reconstitution.
However, a decrease of two specific peptides, i.e. IMA-CCN-001 and IMA-RGS-001 took place (see Table 6). As these peptides contain a cysteine residue, time-depending dimerization takes place.
as §1

[4] abbreviates: +mannitol/lutrol, 1 h after reconstitution.
[5] abbreviates: +mannitol/lutrol, 2 h after reconstitution.
Setting [6] is: +mannitol/lutrol, 3 h after reconstitution.
Setting [7] is: +mannitol/lutrol, 4 h after reconstitution.
Setting [8] is: +mannitol/lutrol, 5 h after reconstitution.
The mark [9] stands for this setting: +mannitol/lutrol, 6 h after reconstitution.
[10] abbreviates: +mannitol/lutrol, Initial (starting value set to 100%).
Setting [11] is: no excipients, 1 h after reconstitution.
[12] abbreviates: no excipients, 2 h after reconstitution.
The mark [13] stands for this setting: no excipients, 3 h after reconstitution.
[14] abbreviates: no excipients, Initial (starting value set to 100%).

For the sequence “AIIDGVESV (listed as Homo sapiens) [PTP-003, Protein tyrosine phosphatase, receptor-type, Z polypeptide 1 peptide]”, the figures for the “stability of peptides in formulation, 1 M” value in data set [1] (+5° C. +/- 3° C.), in data set [1] (+25° C. +/- 2° C.) and in data set [1] (-20° C. +/- 5° C.) were 99.07 % of Initial, 98.29 % of Initial and 99.11 % of Initial, respectively. Also, the “stability of peptides in formulation, 2 M” value in data set [1] (+5° C. +/- 3° C.) is listed as 97.95 % of Initial; in data set [1] (+25° C. +/- 2° C.), 97.11 % of Initial; in data set [1] (-20° C. +/- 5° C.), 97.48 % of Initial. Besides, the “stability of peptides in formulation, 3 M” value was 98.68 % of Initial in data set [1] (+5° C. +/- 3° C.), 98.29 % of Initial in data set [1] (+25° C. +/- 2° C.) and 98.57 % of Initial in data set [1] (-20° C. +/- 5° C.). For the same sequence, the “stability of peptides in formulation, INITIAL” value in data set [1] (+5° C. +/- 3° C.), in data set [1] (+25° C. +/- 2° C.) and in data set [1] (-20° C. +/- 5° C.) was 100.0% throughout. Moreover, the “in-use stability, Peptide [%]” value was found to be 100.3% in data set [2] (+Mannitol/Lutrol, 2h); 100.5% in data set [2] (+Mannitol/Lutrol, 4h); 100.1% in data set [2] (+Mannitol/Lutrol, 6h); 100.0% in data set [2] (+Mannitol/Lutrol, Initial); 100.4% in data set [2] (no excipients, 2h); 100.9% in data set [2] (no excipients, 4h). Besides, the “in-use stability, Peptide [%]” value in data set [2] (no excipients, 6h) came to 96.1%; in data set [2] (no excipients, Initial) it was 100.0%.
As for “ALADGVQKV (listed as Homo sapiens) [APO-001, Apolipoprotein L1 tumour-associated peptide]”, the “in-use stability, peptide by HPLC-assay” value in data set [3] (setting [4]) came out at 99.8%; in data set [3] (setting [5]), 99.8%; in data set [3] (setting [6]), 100.7%; in data set [3] (setting [7]), 100.9%; in data set [3] (setting [8]) it was 99.6%; in data set [3] (setting [9]), 101.5%. Moreover, the “in-use stability, peptide by HPLC-assay” value is 100.0% in data set [3] (setting [10]); 100.0% in data set [3] (setting [11]); 97.4% in data set [3] (setting [12]); 97.4% in data set [3] (setting [13]); 100.0% in data set [3] (setting [14]).
Turning to “ALFDGDPHL (listed as Homo sapiens) [K67-001, KIAA0367 tumour-associated peptide]”, the “in-use stability, peptide by HPLC-assay” value in data set [3] (setting [4]) turned out to be 99.8%; in data set [3] (setting [5]) it was 100.4%; in data set [3] (setting [6]) it was 101.6%; in data set [3] (setting [7]), 101.8%; in data set [3] (setting [8]), 100.6%; in data set [3] (setting [9]), 102.5%. The “in-use stability, peptide by HPLC-assay” value in data set [3] (setting [10]) amounted to 100.0%; in data set [3] (setting [11]) it was 100.8%; in data set [3] (setting [12]) it was 99.2%; in data set [3] (setting [13]), 97.5%; in data set [3] (setting [14]), 100.0%.
On to “ALWAWPSEL (listed as Homo sapiens) [BCA-002, Brevican tumour-associated peptide]”, for which the “stability of peptides in formulation, 1 M” value was 99.13 % of Initial in data set [1] (+5° C. +/- 3° C.), 98.20 % of Initial in data set [1] (+25° C. +/- 2° C.) and 99.17 % of Initial in data set [1] (-20° C. +/- 5° C.). Also, the “stability of peptides in formulation, 2 M” value in data set [1] (+5° C. +/- 3° C.) is reported as 98.04 % of Initial; in data set [1] (+25° C. +/- 2° C.), 97.05 % of Initial; in data set [1] (-20° C. +/- 5° C.) it was 97.61 % of Initial. Also, the “stability of peptides in formulation, 3 M” value in data set [1] (+5° C. +/- 3° C.) is listed as 98.73 % of Initial; in data set [1] (+25° C. +/- 2° C.) it was 97.88 % of Initial; in data set [1] (-20° C. +/- 5° C.), 98.61 % of Initial. In addition, the “stability of peptides in formulation, INITIAL” value in data set [1] (+5° C. +/- 3° C.), in data set [1] (+25° C. +/- 2° C.) and in data set [1] (-20° C. +/- 5° C.) was 100.0% throughout. Further, the “in-use stability, Peptide [%]” value is given as 99.8% in data set [2] (+Mannitol/Lutrol, 2h); 99.6% in data set [2] (+Mannitol/Lutrol, 4h); 98.9% in data set [2] (+Mannitol/Lutrol, 6h); 100.0% in data set [2] (+Mannitol/Lutrol, Initial); 99.9% in data set [2] (no excipients, 2h); 100.1% in data set [2] (no excipients, 4h). Moreover, the “in-use stability, Peptide [%]” value in data set [2] (no excipients, 6h) amounted to 95.4%; in data set [2] (no excipients, Initial), 100.0%.
For the sequence “LLGATCMFV (listed as Homo sapiens) [CCN-001, Cyclin D1 tumour-associated peptide]”, the “in-use stability, peptide by HPLC-assay” value is 95.6% in data set [3] (setting [4]); 92.2% in data set [3] (setting [5]); 91.3% in data set [3] (setting [6]); 89.2% in data set [3] (setting [7]); 86.1% in data set [3] (setting [8]); 85.9% in data set [3] (setting [9]). The “in-use stability, peptide by HPLC-assay” value in data set [3] (setting [10]) was 100.0%; in data set [3] (setting [11]), 82.8%; in data set [3] (setting [12]), 72.1%; in data set [3] (setting [13]), 63.3%; in data set [3] (setting [14]), 100.0%. The “stability after reconstitution (in words)” value in data set [3] (Example 2 formulation, 4.2% sodium hydrogen carbonate) is given as “decrease”.
For the sequence “SQDDIKGIQKLYGKRS (listed as Homo sapiens) [MMP-001, Matrix metalloproteinase 7 tumour-associated peptide]”, the “in-use stability, peptide by HPLC-assay” value amounted to 99.5% in data set [3] (setting [4]); 99.3% in data set [3] (setting [5]); 100.2% in data set [3] (setting [6]); 100.4% in data set [3] (setting [7]); 98.9% in data set [3] (setting [8]); 100.9% in data set [3] (setting [9]). Also, the “in-use stability, peptide by HPLC-assay” value in data set [3] (setting [10]) amounted to 100.0%; in data set [3] (setting [11]), 98.6%; in data set [3] (setting [12]), 97.1%; in data set [3] (setting [13]) it was 95.7%; in data set [3] (setting [14]), 100.0%.
“SVFAGVVGV (listed as Homo sapiens) [GUC-001, GUCY1A3 tumour-associated peptide]”: the “in-use stability, peptide by HPLC-assay” value in data set [3] (setting [4]) is given as 99.7%; in data set [3] (setting [5]), 99.5%; in data set [3] (setting [6]), 100.6%; in data set [3] (setting [7]) it was 100.8%; in data set [3] (setting [8]), 99.7%; in data set [3] (setting [9]) it was 101.6%. The “in-use stability, peptide by HPLC-assay” value in data set [3] (setting [10]) worked out at 100.0%; in data set [3] (setting [11]), 100.0%; in data set [3] (setting [12]) it was 100.0%; in data set [3] (setting [13]), 98.6%; in data set [3] (setting [14]), 100.0%.
With “VMAGDIYSV (listed as Homo sapiens) [ADF-002, Adipophilin tumour-associated peptide]”, the “in-use stability, peptide by HPLC-assay” value in data set [3] (setting [4]) was 99.9%; in data set [3] (setting [5]), 100.0%; in data set [3] (setting [6]), 101.1%; in data set [3] (setting [7]) it was 101.2%; in data set [3] (setting [8]), 99.9%; in data set [3] (setting [9]), 101.9%. Also, the “in-use stability, peptide by HPLC-assay” value is 100.0% in data set [3] (setting [10]); 100.9% in data set [3] (setting [11]); 100.0% in data set [3] (setting [12]); 97.2% in data set [3] (setting [13]); 100.0% in data set [3] (setting [14]).
As for “YVDPVITSI (listed as Homo sapiens) [MET-001, c-met proto-oncogene tumour-associated peptide]”, the “in-use stability, peptide by HPLC-assay” value in data set [3] (setting [4]) is given as 99.8%; in data set [3] (setting [5]), 99.8%; in data set [3] (setting [6]), 101.0%; in data set [3] (setting [7]), 101.1%; in data set [3] (setting [8]), 99.8%; in data set [3] (setting [9]) it was 101.7%. Further, the “in-use stability, peptide by HPLC-assay” value in data set [3] (setting [10]) is on record as 100.0%; in data set [3] (setting [11]), 100.0%; in data set [3] (setting [12]), 99.2%; in data set [3] (setting [13]) it was 96.7%; in data set [3] (setting [14]), 100.0%.
